This data set deals with the molecule itself. The experiment in a line: cryo-EM structure; purified AtALMT9-sfGFP-HA-H10 in LMNG; three datasets (LMNG + CHS; LMNG + CHS + 10 mM malate; LMNG + 10 mM malate); 20 mM HEPES pH 7.6, 150 mM NaCl, 1 mM TCEP; nine lipid-bound classes.

B1: AtALMT9-superfolder GFP (sfGFP)-hemagglutinin (HA) tag-decahistidine (H10) tag (natural protein, Arabidopsis thaliana, UniProt Q9LS46 1-598, looked up)
chain: MAAKQGSFRHGILEKRERLLSNNGFSDFRFTDIESNDLLENENCGRRTRLCCCCSCGNLSEKISGVYDDAKDVARKAWEMGVSDPRKIVFSAKIGLALTIVALLIFYQEPNPDLSRYSVWAILTVVVVFEFTIGATLSKGFNRALGTLSAGGLALGMAELSTLFGDWEEIFCTLSIFCIGFLATFMKLYPSMKAYEYGFRVFLLTYCYILISGFRTGQFIEVAISRFLLIALGAGVSLGVNMFIYPIWAGEDLHNLVVKNFMNVATSLEGCVNGYLRCLEYERIPSKILTYQASEDPVYKGYRSAVESTSQEESLMSFAIWEPPHGPYKSFNYPWKNYVKLSGALKHCAFTVMALHGCILSEIQAPEERRQVFRQELQRVGVEGAKLLRELGEKVKKMEKLGPVDLLFEVHLAAEELQHKIDKKSYLLVNSECWEIGNRATKESEPQELLSLEDSDPPENHAPPIYAFKSLSEAVLEIPPSWGEKNHREALNHRPTFSKQVSWPARLVLPPHLETTNGASPLVETTKTYESASALSLATFASLLIEFVARLQNVVDAFKELSQKANFKEPEIVTTGTDVEFSGERVGLGQKIRRCFGM
notes: cloned into modified pACEBac2-sfGFP-HA-H10; No tag cleavage is described; The final models lack the flexible N-terminus, the C-terminus and two long loops (between H1 and H2, and between H5 and H6); also called ALMT9 from Arabidopsis thaliana; source: Sf9 cells (baculovirus), purified (TALON resin, Superdex 200 increase) in LMNG with or without CHS
As usually defined, the stoichiometry N is the number of molecules, sites or subunits per partner or assembly. B1: the “stoichiometry N” value worked out at 2.

Values taken from paper PMC11842843, “Structural basis for malate-driven, pore lipid-regulated activation of the Arabidopsis vacuolar anion channel ALMT9” (Nature Communications, 2025).
